The results in this text go back to publication PMC8188405, “When is an obscurin variant pathogenic? The impact of Arg4344Gln and Arg4444Trp variants on protein–protein interactions and protein stability” (Human Molecular Genetics, 2021).

T1: titin Z8-Z9 (human, UniProt Q8WZ42-12 1698-1931)
T1 construct: titin, human, domains Z8-Z9, residues 1698 to 1931 based on NM_001267550/NP_001254479 (transcript variant IC); numbers count on: transcript variant IC; The vector encodes His6 followed by a TEV cleavage site; no cleavage is described; source: E. coli BL21-CodonPlus (DE3)-RIPL, purified (Ni-NTA)
T1 sequence (looked up): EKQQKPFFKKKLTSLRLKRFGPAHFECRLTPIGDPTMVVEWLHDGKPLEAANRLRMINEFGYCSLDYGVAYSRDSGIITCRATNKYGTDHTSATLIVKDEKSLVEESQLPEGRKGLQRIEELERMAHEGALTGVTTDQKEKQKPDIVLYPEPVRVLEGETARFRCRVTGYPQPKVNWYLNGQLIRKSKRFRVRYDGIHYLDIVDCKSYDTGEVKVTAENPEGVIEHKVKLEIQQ

B1: phospholamban transmembrane region PLN(23-52) (peptide, UniProt P26678 23-52, looked up)
chain: QARQKLQNLFINFCLILICLLLICIIVMLL
notes: phospholamban, human, transmembrane region, residues 23-52 (synthetic); source: synthetic peptide, bought: Pepscan
B2: human full-length phospholamban (peptide, UniProt P26678 1-52, looked up)
chain: MEKVQYLTRSAIRRASTIEMPQQARQKLQNLFINFCLILICLLLICIIVMLL
notes: phospholamban, human, full length (synthetic); Kept in buffer with Triton X-100; seen on gels as monomeric and pentameric bands, both of which were pulled down by Ig58-Ig59; also called PLN; source: synthetic peptide, bought: Pepscan
B3: obscurin Ig58-Ig59 (wild type) (domain or fragment, human, UniProt Q5VST9 4337-4521, looked up)
chain: TAKNTVVRGLENVEALEGGEALFECQLSQPEVAAHTWLLDDEPVHTSENAEVVFFENGLRHLLLLKNLRPQDSCRVTFLAGDMVTSAFLTVRGWRLEILEPLKNAAVRAGAQACFTCTLSEAVPVGEASWYINGAAVQPDDSDWTVTADGSHHALLLRSAQPHHAGEVTFACRDAVASARLTVLG
modifications: labelled with the Monolith NT Protein Labeling kit RED-NHS (in the MST experiments only)
notes: obscurin, human, domains Ig58-Ig59, residues 4337-4521 based on NM_001098623/NP_001092093 (transcript variant B); The vector encodes His6 followed by a TEV cleavage site; no cleavage is described; The His6 tag holds the protein on Ni-NTA beads in the pull-downs; also called Ig58-Ig59WT; O5859; source: E. coli BL21-CodonPlus (DE3)-RIPL, purified (Ni-NTA); not shown: His6, N-terminal, kept
B4: obscurin Ig58-Ig59 R4444W (domain or fragment, human, UniProt Q5VST9 4337-4521, looked up)
chain: B3 chain with R108W
modifications: labelled with the Monolith NT Protein Labeling kit RED-NHS
notes: The variant occurs in the human population; also called R4444W variant; Arg4444Trp; source: E. coli BL21-CodonPlus (DE3)-RIPL, purified (Ni-NTA)
B5: obscurin Ig58-Ig59 R4344Q, A4484T double variant (domain or fragment, human, UniProt Q5VST9 4337-4521, looked up)
chain: B3 chain with R8Q, A148T
modifications: labelled with the Monolith NT Protein Labeling kit RED-NHS
notes: source: E. coli BL21-CodonPlus (DE3)-RIPL, purified (Ni-NTA)
B6: obscurin Ig58-Ig59 R4344Q (domain or fragment, human, UniProt Q5VST9 4337-4521, looked up)
chain: B3 chain with R8Q
modifications: labelled with the Monolith NT Protein Labeling kit RED-NHS (in the MST experiments only)
notes: The variant occurs in the human population (found in up to 15% of African Americans); also called R4344Q variant; Arg4344Gln; source: E. coli BL21-CodonPlus (DE3)-RIPL, purified (Ni-NTA); not shown: His6, N-terminal, kept

Positions count from the first letter of the chain named. Names and notes keep the numbering of the source.

Assay [1] addresses B3. The experiment in a line: MST; obscurin Ig58-Ig59 labelled with RED-NHS (typically 50-100 nM); unlabelled PLN peptides diluted serially; PBS, 0.2% (v/v) Triton X-100, 2 mM DTT; Monolith NT.115; one-site binding model. Particulars: both partners purified.
For another assay, the target named is T1, titin Z8-Z9. In words: MST; obscurin Ig58-Ig59 labelled with RED-NHS (typically 50-100 nM); unlabelled titin Z8-Z9 or ObB diluted serially; PBS, 2 mM DTT; Monolith NT.115; one-site binding model. The settings on record: both partners purified.

By Kd is commonly meant the free concentration of one partner at which half of the binding sites on the other are occupied at equilibrium, for simple one-to-one binding. Read a high Kd as a looser complex. With B1, binding in assay [1] was characterised by a dissociation constant (Kd) of 58.5 µM.

B2 yielded an equilibrium dissociation constant (Kd) in assay [1] of 18.9 µM. This Kd is about 3.1-fold lower than that of the molecule before.

The molecule B3 displayed a Kd with titin Z8-Z9 of 7.8 µM. In other words, the single-digit micromolar range.

For the molecule B4, in the assay with titin Z8-Z9, the dissociation constant Kd is 6.4 µM. The Kd values of the last two molecules are within 1.5-fold of each other.

Consider B5, for which the binding result with titin Z8-Z9 is reported as “binds”.

B6 came in with a Kd with titin Z8-Z9 of 6.6 µM. That is a single-digit micromolar value.
